One assay concerns the target His tagged CD20 protein (UniProt P11836). Description: ELISA, His tagged CD20 protein.
The next assay has as its target His tagged VEGF protein (UniProt P15692). Description: ELISA, His tagged VEGF protein.

Sequence of His tagged VEGF protein (P15692 other isoform, or with tags, fused parts or gaps limits assumed): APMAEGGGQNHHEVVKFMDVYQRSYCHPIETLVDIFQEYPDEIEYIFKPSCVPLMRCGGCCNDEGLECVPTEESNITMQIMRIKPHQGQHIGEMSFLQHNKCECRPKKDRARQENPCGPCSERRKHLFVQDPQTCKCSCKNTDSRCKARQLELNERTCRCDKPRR

B1: Ritu-se001 conjugated to S47 (antibody, human IgG1, kappa, V domains shown)
VH: QVQLQQPGAELVKPGASVKMSCKASGYTFTSCNMHWVKQTPGRGLEWIGAIYPGNGDTSYNQKFKGKATLTADKSSSTAYMQLSSLTSEDSAVYYCARSTYYGGDWYFNVWGAGTTVTVSA
VL: QIVLSQSPAILSASPGEKVTMTCRASSSVSYIHWFQQKPGSSPKPWIYATSNLASGVPVRFSGSGSGTSYSLTISRVEAEDAATYYCQQWTSNPPTFGGGTKLEIKR
modifications: S47 on Cys 32
Consider B1, for which the Blocking efficiency of S47 with His tagged CD20 protein stood at 16 fold.

B2: Ritu-se002 conjugated to S47 (antibody, human IgG1, kappa, V domains shown)
VH: QVQLQQPGAELVKPGASVKMSCKASGYTFTSYNMHWVKQTPGRGLEWIGAIYPGNGDTSYNQCFKGKATLTADKSSSTAYMQLSSLTSEDSAVYYCARSTYYGGDWYFNVWGAGTTVTVSA
VL: QIVLSQSPAILSASPGEKVTMTCRASSSVSYIHWFQQKPGSSPKPWIYATSNLASGVPVRFSGSGSGTSYSLTISRVEAEDAATYYCQQWTSNPPTFGGGTKLEIKR
modifications: S47 on Cys 63
B2 yielded a Blocking efficiency of S47 in the assay with His tagged CD20 protein of 8 fold.

B3: Beva-se002 conjugated to S47 (antibody, human IgG1, kappa, V domains shown)
VH: EVQLVESGGGLVQPGGSLRLSCAASGYTFTNYGMNWVRQAPGKGLEWVGWINTYTGEPTYAADFKRRFTFSLDTSKSTAYLQMNSLRAEDTAVYYCAKYPHYYGSSHWYFDVWGQGTLVTVSS
VL: DIQMTQSPSSLSASVGDRVTITCSACQDISNYLNWYQQKPGKAPKVLIYFTSSLHSGVPSRFSGSGSGTDFTLTISSLQPEDFATYYCQQYSTVPWTFGQGTKVEIKR
modifications: S47 on Cys 26
In turn, B3 yielded a Blocking efficiency of S47 with His tagged VEGF protein of 16 fold.

B4: Beva -se004 conjugated to S47 (antibody, human IgG1, kappa, V domains shown)
VH: EVQLVESGGGLVQPGGSLRLSCAASGYTFTNYGMNWVRQAPGKGLEWVGWINTYTGEPTYAADFKRRFTFSLDTSKSTAYLQMNSLRAEDTAVYYCAKYPHYYGSSHWYFDVWGQGTLVTVSS
VL: DIQMTQSPSSLSASVGDRVTITCSASQDISNYLNWYQQKPGKAPKVLIYFCSSLHSGVPSRFSGSGSGTDFTLTISSLQPEDFATYYCQQYSTVPWTFGQGTKVEIKR
modifications: S47 on Cys 51
As for B4, the Blocking efficiency of S47 with His tagged VEGF protein was 13 fold.

B5: Beva-se003 conjugated to S47 (antibody, human IgG1, kappa, V domains shown)
VH: EVQLVESGGGLVQPGGSLRLSCAASGYTFTNYGMNWVRQAPGKGLEWVGWINTYTGEPTYAADFKRRFTFSLDTSKSTAYLQMNSLRAEDTAVYYCAKYPHYYGSSHWYFDVWGQGTLVTVSS
VL: DIQMTQSPSSLSASVGDRVTITCSASQDISNYLNWYQQKPGKAPKVLICFTSSLHSGVPSRFSGSGSGTDFTLTISSLQPEDFATYYCQQYSTVPWTFGQGTKVEIKR
modifications: S47 on Cys 49
As to B5, the Blocking efficiency of S47 with His tagged VEGF protein was determined as 26 fold.

(Values after US20230158141A1.)
